Where a chain is given by its changes, count along the chain named. Names and notes keep the numbering of the source. Read-outs that look alike come from different tables or passages of the source.
B1: murine GPC3-1 antibody (antibody, V domains shown)
VH: QVQLQQSGAELVRPGASVTLSCKASGYTFTDYEMHWVKQTPVHGLEWIGGIDPETGGTAYNQKFKGKATLTADKSSSTAYMDLRSLTSEDSAVYYCGRYYSFAYWGQGTLVTVSA
VL: DVLMTQTPLSLPLSLGDQASISCRSSQSIVHSNGNTYLQWFLQKPGQSPKLLIYKVSNRFSGVPDRFSGSGSGTDFTLKIGRVEAEDLGVYYCFQVSHVPYTFGGGTKLVMK
notes: Murine hybridoma IgG; also called mGPC3-1
B2: hGPC3-1 HCLB (antibody, V domains shown)
VH: EVQLVQSGAEVKKPGATVKISCKASGYTFTDYEMHWVQQAPGKGLEWIGGIDPETGGTAYNQKFKGRATLTADKSTDTAYMELSSLRSEDTAVYYCGRYYSFAYWGQGTLVTVSS
VL: DVVMTQSPLSLPVTLGQPASISCRSSQSIVHSNGNTYLQWFQQRPGQSPRLLIYKVSNRFSGVPDRFSGSGSGTDFTLKISRVEAEDVGVYYCFQVSHVPYTFGQGTKLEIK
notes: Kabat positions
B3: hGPC3-1 HALC (antibody, V domains shown)
VH: B2 VH with E1Q, T17S, I20V, Q38R, K43Q, K74T, D77S, S84R, E89D, G97A
VL: B2 VL with R50K, E110V, I111M
notes: Kabat positions
B4: hGPC3-1ec (HBLE) (antibody, V domains shown)
VH: B2 VH with A24V, I48M, A68V
VL: B2 VL with G34A
notes: HBLE variable regions on IgG1 with a cysteine substitution at position 239 of the heavy chain (S239C, EU index); 'ec' marks this; Tested unconjugated; also called humanized GPC3-1ec
B5: hGPC3-1 HCLC (antibody, V domains shown)
VH: B2 VH
VL: B2 VL with R50K, E110V, I111M
notes: Kabat positions
B6: hGPC3-1 HCLA (antibody, V domains shown)
VH: B2 VH
VL: B2 VL with L51R
notes: Kabat positions
B7: hGPC3-1 HBLB (antibody, V domains shown)
VH: B2 VH with A24V, I48M, A68V
VL: B2 VL
notes: Kabat position
B8: hGPC3-1 HDLA (antibody, V domains shown)
VH: B2 VH with Q38K, R67K
VL: B2 VL with L51R
notes: Kabat positions
B9: hGPC3-1 HBLA (antibody, V domains shown)
VH: B2 VH with A24V, I48M, A68V
VL: B2 VL with L51R
notes: Kabat positions
B10: hGPC3-1 HDLC (antibody, V domains shown)
VH: B2 VH with Q38K, R67K
VL: B2 VL with R50K, E110V, I111M
notes: Kabat positions
B11: hGPC3-1 HBLC (antibody, V domains shown)
VH: B2 VH with A24V, I48M, A68V
VL: B2 VL with R50K, E110V, I111M
notes: Kabat positions
B12: hGPC3-1 HDLB (antibody, V domains shown)
VH: B2 VH with Q38K, R67K
VL: B2 VL
notes: Kabat positions
B13: hGPC3-1 HALB (antibody, V domains shown)
VH: B2 VH with E1Q, T17S, I20V, Q38R, K43Q, K74T, D77S, S84R, E89D, G97A
VL: B2 VL
notes: Kabat position
B14: hGPC3-1 HBLB-Q (antibody, V domains shown)
VH: B2 VH with A24V, I48M, A68V
VL: B2 VL with N33Q
notes: Kabat positions
B15: hGPC3-1 HBLB-V (antibody, V domains shown)
VH: B2 VH with A24V, I48M, A68V
VL: B2 VL with G34V
notes: Kabat position
B16: hGPC3-1 HBLE (antibody, V domains shown)
VH: B2 VH with A24V, I48M, A68V
VL: B2 VL with G34A
notes: Only variable regions are tied to the antibody; also called lead humanized GPC3-1 antibody
B17: hGPC3-1 HBLD (antibody, V domains shown)
VH: B2 VH with A24V, I48M, A68V
VL: B2 VL with N33D
notes: Kabat positions

Columns and labels:
[1] = biological target: T1, human Glypican 3 (GPC3) on GPC3-positive cells (human, UniProt P51654 25-554); experiment: competition with AlexaFluor-488 labeled mGPC3-1 on GPC3-positive cells, flow cytometry
T1 construct: whole, on cells; the methods say only 'GPC3-positive cells'; also called hGPC3
T1 sequence (P51654 25-554 limits assumed): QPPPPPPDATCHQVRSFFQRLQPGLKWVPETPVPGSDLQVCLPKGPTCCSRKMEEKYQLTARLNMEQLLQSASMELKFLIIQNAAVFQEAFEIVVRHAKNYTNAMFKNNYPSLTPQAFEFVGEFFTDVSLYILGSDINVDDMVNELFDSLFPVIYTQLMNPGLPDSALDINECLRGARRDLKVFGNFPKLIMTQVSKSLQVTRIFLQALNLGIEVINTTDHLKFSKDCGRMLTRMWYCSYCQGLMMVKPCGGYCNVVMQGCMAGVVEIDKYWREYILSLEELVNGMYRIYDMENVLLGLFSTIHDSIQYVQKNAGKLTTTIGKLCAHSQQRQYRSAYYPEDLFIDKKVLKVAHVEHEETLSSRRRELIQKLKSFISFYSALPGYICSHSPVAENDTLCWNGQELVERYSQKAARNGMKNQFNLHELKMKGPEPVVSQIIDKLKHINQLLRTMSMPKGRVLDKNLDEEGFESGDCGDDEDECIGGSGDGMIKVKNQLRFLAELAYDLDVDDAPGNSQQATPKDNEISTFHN
Procedure: (§1) Cells were centrifuged, washed 3 times with PBS, and resuspended in 125 μL of a PBS+2% FBS solution. […] The EC50 was extrapolated by fitting the data to a sigmoidal dose-response curve with variable slope.

[2] = biological target: T2, Human GPC3 (hGPC3 GP3-H5258, AcroBiosystems), biotinylated (human, UniProt P51654 25-559, biotinylated with Pierce NHS-LC-LC-Biotin at 1.5:1 biotin/protein ratio); experiment: BLI (Octet Red 384), biotinylated hGPC3 on SAX biosensors, hGPC3-1ec as analyte, bivalent binding, 1:1 fit, association 600 sec; bivalent binding, kinetic 1:1 fit, association of 600 sec
T2 construct: Bought protein; also called immobilized hGPC3
T2 sequence (P51654 25-559 limits assumed): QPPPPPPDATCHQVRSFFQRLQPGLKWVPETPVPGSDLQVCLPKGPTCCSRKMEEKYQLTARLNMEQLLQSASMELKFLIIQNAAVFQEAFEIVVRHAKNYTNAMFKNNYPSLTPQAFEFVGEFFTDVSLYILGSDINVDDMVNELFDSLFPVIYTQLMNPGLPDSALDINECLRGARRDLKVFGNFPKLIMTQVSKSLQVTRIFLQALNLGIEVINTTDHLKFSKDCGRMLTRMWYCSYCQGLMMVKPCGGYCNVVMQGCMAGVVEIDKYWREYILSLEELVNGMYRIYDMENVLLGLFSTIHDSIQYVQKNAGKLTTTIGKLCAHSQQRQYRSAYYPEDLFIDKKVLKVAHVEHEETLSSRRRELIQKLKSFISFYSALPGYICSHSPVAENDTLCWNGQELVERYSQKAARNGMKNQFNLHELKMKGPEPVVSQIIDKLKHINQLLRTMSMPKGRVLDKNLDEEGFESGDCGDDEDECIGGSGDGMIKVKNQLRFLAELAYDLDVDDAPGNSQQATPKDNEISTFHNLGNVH
Procedure: (§2) Human GPC3 (hGPC3 GP3-H5258) was purchased from AcroBiosystems and biotinylated using Pierce NHS-LC-LC-Biotin at a molar ratio of 1.5:1 biotin/protein ratio. Biolayer interferometry (BLI) was performed on an Octet Red 384 system (ForteBio) with High Precision Streptavidin (SAX) Biosensors and GPC3 as the probe using hGPC3-1ec as the analyte.

[3] = biological target: T2, Human GPC3 (hGPC3 GP3-H5258, …); experiment: BLI (Octet Red 384), biotinylated hGPC3 on SAX biosensors, hGPC3-1ec as analyte, bivalent binding, 1:1 fit; bivalent binding, kinetic 1:1 fit (kdiss/kon)
Procedure: as §2

[4] = biological target: T2, Human GPC3 (hGPC3 GP3-H5258, …); experiment: BLI (Octet Red 384), biotinylated hGPC3 on SAX biosensors, hGPC3-1ec as analyte, bivalent binding, 1:1 fit, dissociation 1800 sec; bivalent binding, kinetic 1:1 fit, disassociation of 1800 sec
Procedure: as §2

[5] = biological target: T2, Human GPC3 (hGPC3 GP3-H5258, …); experiment: BLI/SPR steady state: 600 second maximum response against concentration, half maximal binding (FIG. 6); binding affinity from FIG. 6, not the bivalent kinetic fit
Procedure: (Left) Multiple sensorgrams represent several concentrations (400, 160, 64, 25.6, 10.2, 4.1, and 1.64 nM) of hGPC3-1ec associating with immobilized hGPC3. (Right) The KD was determined by plotting the 600 second maximum response for each concentration and was defined by half maximal binding.
as §2

[6] = biological target: T1, human Glypican 3 (GPC3) on …; experiment: competition with AlexaFluor-488 labeled mGPC3-1 on GPC3-positive cells, flow cytometry; remark: listed apart in the source
Procedure: as §1

Row | Binder | EC50 [1] [nM] | also measured
1 | B1 | 9 | 
2 | B2 | 18 | 
3 | B3 | 63 | 
4 | B4 |  | kon [2]: 113000 M⁻¹ s⁻¹; Kd [3]: 0.204 nM; koff [4]: 2.3e-05 s⁻¹; Kd [5]: 14 nM
5 | B5 | 19 | 
6 | B6 | 76 | 
7 | B7 | 14 | EC50 [6]: 3 nM
8 | B8 | 149 | 
9 | B9 | 203 | 
10 | B10 | 13 | 
11 | B11 | 25 | 
12 | B12 | 10 | 
13 | B13 | 91 | 
14 | B14 |  | EC50 [6]: 7 nM
15 | B15 |  | EC50 [6]: 4 nM
16 | B16 |  | EC50 [6]: 3 nM
17 | B17 |  | EC50 [6]: 74 nM
